Test results from patent US20260193348A1 (ANTENGENE BIOLOGICS, published 2026).
Changes are numbered by the printed parent chain. Names and notes keep the numbering of the source. Each block holds one binder with its values, some of them ahead of it.

How the values were obtained:
[1] = target: T1, GPRC5D (G-protein coupled receptor family C group 5 member D), human, on multiple myeloma cell lines (human, UniProt Q9NZD1 1-345); experiment: cell-based or functional assay
[2] = target: T1, GPRC5D (G-protein coupled receptor …); experiment: cell-based or functional assay; remark: listed apart in the source
[3] = target: T2, CD3 (Cluster of Differentiation 3 protein), human, on T cells / Jurkat cells (human, UniProt P07766 23-207; P04234 22-171; P09693 23-182); experiment: FACS, Jurkat cells, antibody at 50 µg/ml
T2 construct: whole, on cells; part of the TCR-CD3 complex; also called human CD3
T2 sequence (P07766 23-207, chain 1 of 3): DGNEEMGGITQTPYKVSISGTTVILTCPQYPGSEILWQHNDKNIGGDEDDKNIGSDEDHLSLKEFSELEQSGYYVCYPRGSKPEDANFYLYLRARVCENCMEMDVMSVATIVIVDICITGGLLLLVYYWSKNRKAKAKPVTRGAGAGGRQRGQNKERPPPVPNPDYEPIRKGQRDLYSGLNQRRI
T2 sequence (P04234 22-171, chain 2 of 3): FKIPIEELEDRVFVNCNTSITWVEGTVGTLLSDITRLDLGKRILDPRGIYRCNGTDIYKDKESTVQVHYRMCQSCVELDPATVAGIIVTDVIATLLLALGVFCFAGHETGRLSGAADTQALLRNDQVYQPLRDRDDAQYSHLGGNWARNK
T2 sequence (P09693 23-182, chain 3 of 3): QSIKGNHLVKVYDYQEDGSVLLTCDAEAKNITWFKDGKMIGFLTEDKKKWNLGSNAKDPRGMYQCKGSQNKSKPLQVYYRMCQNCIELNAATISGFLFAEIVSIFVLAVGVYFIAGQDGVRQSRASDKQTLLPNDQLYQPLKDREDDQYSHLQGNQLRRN
Procedure: (§1) The binding affinities of the generated humanized Fab-scFv-Fab bispecific antibodies were determined by FACS analysis. […] (a) Jurkat cells were washed by Staining Buffer (PBS+1% BSA) in round bottom 96-well plate. [0833] (b) Antibody dilutions and cells were added to each well, incubated at 4 degrees for 1 hour. [0834] (c) Cells were spined down at 300 g for 3 minutes, and the supernatants were discarded. [0835] (d) Cells were washed with Staining Buffer. […] (e) Step (d) was repeated and the cells were incubated for 0.5 hours at 4 degrees with secondary antibody in Staining Buffer. [0837] (f) After incubation, step (d)-(e) were repeated. […] (g) Staining Buffer was added and fluorescence signals were recorded by flow cytometry.

GPRC5D on MM.1S cells [4] = target: T3, GPRC5D on MM.1S cells (human, UniProt Q9NZD1 1-345); experiment: FACS on MM.1S cells
T3 construct: whole, on cells; MM.1S is called a GPRC5D positive expressed cell line and human multiple myeloma cells; also called G-protein coupled receptor family C group 5 member D
T3 sequence (Q9NZD1 whole entry): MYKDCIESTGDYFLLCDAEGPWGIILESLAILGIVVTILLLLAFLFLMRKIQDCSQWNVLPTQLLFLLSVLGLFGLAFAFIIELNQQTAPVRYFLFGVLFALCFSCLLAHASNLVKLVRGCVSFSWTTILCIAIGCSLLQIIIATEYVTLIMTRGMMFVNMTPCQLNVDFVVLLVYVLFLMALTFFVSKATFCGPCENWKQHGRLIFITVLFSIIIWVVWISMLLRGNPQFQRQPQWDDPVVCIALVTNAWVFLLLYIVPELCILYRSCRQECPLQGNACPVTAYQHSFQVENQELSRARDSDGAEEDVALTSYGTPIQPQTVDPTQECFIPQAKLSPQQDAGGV
Procedure: To evaluate the binding affinity of the generated chimeric bispecific antibody to T cells, the isolated CD3⁺ T cells were stained by antibodies and the binding affinity was determined by FACS analysis. The protocol of FACS analysis is described as follows: [0785] (a) CD3⁺ T cells were isolated from normal donors. [0786] (b) The isolated CD3⁺ T cells were washed by Staining Buffer (PBS+1% BSA) in round bottom 96-well plate. […] (c) Antibody dilutions were added to each well and mixed with the CD3+ T cells, incubated at 4 degrees for 1 hour. […] (d) Cells were spined at 300 g for 3 minutes, then the supernatants were discarded. [0789] (e) Cells were washed with Staining Buffer. [0790] (f) Step (d) was repeated, and the cells were incubated with secondary antibody in Staining Buffer for 0.5 hours at 4 degrees. [0791] (g) After incubation, step (d)-(e) were repeated. [0792] (h) Cells were resuspended in Staining Buffer and fluorescence signals were recorded by flow cytometry.
The binding affinities of the generated humanized Fab-scFv-Fab bispecific antibodies to MM.1S were evaluated by FACS analysis. The protocol for FACS analysis is identical to that described in Example 1.2, except that MM.1S were used in this example.

GPRC5D on MM.1S cells [5] = target: T3, GPRC5D on MM.1S cells; experiment: cell-based or functional assay
CD3 on Jurkat cells = target: T4, CD3 on Jurkat cells (UniProt P07766 23-207; P04234 22-171; P09693 23-182); experiment: FACS on Jurkat cells
T4 construct: whole, on cells; On the cell, CD3 stands in the TCR-CD3 complex; also called cluster of differentiation 3
T4 sequence (P07766 23-207, chain 1 of 3): as the sequence (P07766 23-207, chain 1 of 3) above
T4 sequence (P04234 22-171, chain 2 of 3): as the sequence (P04234 22-171, chain 2 of 3) above
T4 sequence (P09693 23-182, chain 3 of 3): as the sequence (P09693 23-182, chain 3 of 3) above
Procedure: as §1
The binding affinities of the generated humanized Fab-scFv-Fab bispecific antibodies were determined by FACS analysis. The protocol for FACS analysis is identical to that described in Example 3.2, except that different test antibodies were used.

GPRC5D on MM.1S cells [6] = target: T3, GPRC5D on MM.1S cells; experiment: cell-based or functional assay; remark: listed apart in the source

T1 sequence (Q9NZD1 whole entry): as the sequence (Q9NZD1 whole entry) above

- Ratio of EC50 (relative to ATG-Bis-40E9) (GPRC5D on MM.1S cells [4]): 5.78 ratio
- Ratio of Top MFI (relative to ATG-Bis-40E9) (GPRC5D on MM.1S cells [4]): 1.47 ratio
- Ratio of EC50 (relative to ATG-Bis-40E9) (CD3 on Jurkat cells): 7.88 ratio
- Ratio of Top MFI (relative to ATG-Bis-40E9) (CD3 on Jurkat cells): 6.35 ratio
- Ratio of EC50 (relative to ATG-Bis-40E9), luciferase assay on MM.1S (GPRC5D on MM.1S cells [6]): 26.2 ratio
- Ratio of Top RLU (relative to ATG-Bis-40E9), luciferase assay on MM.1S (GPRC5D on MM.1S cells [6]): 1.24 ratio
B3: Bis-40E9-L2H11 (bispecific antibody)
heavy 1: not shown
heavy 2: EVQLVQSGAEVKKPGASVKVSCKASGYTFTSYVIHWVRQAPGQGLEWMGYFNPYNDGTKYNEEFKGRVTLTSDKSTSTAYMELRSLRSDDTAVYYCARGGVRRYFDVWGQGTTVTVSSASTKGPSVFPLAPSSKSTSGGTAALGCLVKDYFPEPVTVSWNSGALTSGVHTFPAVLQSSGLYSLSSVVTVPSSSLGTQTYICNVNHKPSNTKVDKKVEPKSCGGGGSGGGGSEVQLVQSGAEVKKPGSSVKVSCKASGYTFSSYVIHWVRQAPGQCLEWMGYINPYNDVIKYNEKFKGRVTLTSDKSTSTAYMELSSLRSEDTAVYYCARDSYYSYRAFAYWGQGTLVTVSSGGGGSGGGGSGGGGSGGGGSEIVLTQSPDFQSVTPKEKVTITCSASSSVSYMHWYQQKPDQSPKRLIYDTSKLASGVPSRFSGSGSGTDFTLTINSLEAEDAATYYCQQWSSNPPTFGCGTKVEIKGGGGSGGGGSDKTHTCPPCPAPEAAGGPSVFLFPPKPKDTLMISRTPEVTCVVVDVSHEDPEVKFNWYVDGVEVHNAKTKPREEQYNSTYRVVSVLTVLHQDWLNGKEYKCKVSNKALPAPIEKTISKAKGQPREPQVCTLPPSREEMTKNQVSLSCAVKGFYPSDIAVEWESNGQPENNYKTTPPVLDSDGSFFLVSKLTVDKSRWQQGNVFSCSVMHEALHNHYTQKSLSLSPGK
light: DIQMTQSPSSLSASVGDRVTITCRASQDIGSNLNWLQQKPGKAIKRLIYATFGLDSGVPSRFSGSRSGTDFTLTISSLQPEDFATYYCQQYASFPYTFGGGTKVEIKRTVAAPSVFIFPPSDEQLKSGTASVVCLLNNFYPREAKVQWKVDNALQSGNSQESVTEQDSKDSTYSLSSTLTLSKADYEKHKVYACEVTHQGLSSPVTKSFNRGEC
notes: Fab-scFv-Fab format with LALA mutations; copies: 1 + 1 + 2
- Ratio of IC50 (relative to ATG-Bis-40E9), MM.1S cytotoxicity (GPRC5D on MM.1S cells [5]): 13.7 ratio
- Ratio of Top cytotoxicity (relative to ATG-Bis-40E9), MM.1S cytotoxicity (GPRC5D on MM.1S cells [5]): 1 ratio

- Ratio of EC50 (relative to ATG-Bis-40E9) (CD3 on Jurkat cells): 167 ratio
- Ratio of EC50 (relative to ATG-Bis-40E9), luciferase assay on MM.1S (GPRC5D on MM.1S cells [6]): 1.33 ratio
- Ratio of Top RLU (relative to ATG-Bis-40E9), luciferase assay on MM.1S (GPRC5D on MM.1S cells [6]): 0.75 ratio
B4: Bis-40E9-L2H3-N55S.H (bispecific antibody, human IgG1, kappa, L234A L235A)
heavy 1: not shown
heavy 2: B3 heavy 2 with N286S, R336D, A337G
light: B3 light
- Ratio of IC50 (relative to ATG-Bis-40E9), MM.1S cytotoxicity (GPRC5D on MM.1S cells [5]): 1.06 ratio
- Ratio of Top cytotoxicity (relative to ATG-Bis-40E9), MM.1S cytotoxicity (GPRC5D on MM.1S cells [5]): 1 ratio

Further lines, the binder ahead of its results:

B1: Bis-40E9-L2H3 (bispecific antibody, human IgG1, kappa, L234A L235A)
heavy 1: not shown
heavy 2: B3 heavy 2 with R336D, A337G
light: B3 light
notes: Fab-scFv-Fab, LALA; also called humanized 2+1 bispecific antibody with scFv 40E9-L2H3
- EC50 (nM), luciferase assay, MM.1S [1]: 0.0898 nM
- Top (RLU), luciferase assay, MM.1S [1]: 1940 RLU
- Top (RLU), luciferase assay, MOLP-8 [1]: 221 RLU
- IC50 (nM), T-Cell Dependent Cytotoxicity, MM.1S [2]: 0.00571 nM
- IC50 (nM), T-Cell Dependent Cytotoxicity, MOLP-8 [2]: 0.00166 nM
- IC50 (nM), T-Cell Dependent Cytotoxicity, RPMI8226 [2]: 0.06 nM
- Top (%), T-Cell Dependent Cytotoxicity, MM.1S [2]: 66.8%
- Top (%), T-Cell Dependent Cytotoxicity, MOLP-8 [2]: 71.9%
- Top (%), T-Cell Dependent Cytotoxicity, RPMI8226 [2]: 11.5%
- MFI (50 µg/ml) [3]: 341 MFI

B2: Bis-40E9-L2H3 (bispecific antibody, human IgG1, kappa, L234A L235A)
heavy 1: not shown
heavy 2: B3 heavy 2 with R336D, A337G
light: B3 light
- Ratio of EC50 (relative to ATG-Bis-40E9) (GPRC5D on MM.1S cells [4]): 1.19 ratio
- Ratio of Top MFI (relative to ATG-Bis-40E9) (GPRC5D on MM.1S cells [4]): 0.997 ratio
- Ratio of IC50 (relative to ATG-Bis-40E9), MM.1S cytotoxicity (GPRC5D on MM.1S cells [5]): 0.23 ratio
- Ratio of Top cytotoxicity (relative to ATG-Bis-40E9), MM.1S cytotoxicity (GPRC5D on MM.1S cells [5]): 1.04 ratio
- Ratio of EC50 (relative to ATG-Bis-40E9) (CD3 on Jurkat cells): 1.65 ratio
- Ratio of Top MFI (relative to ATG-Bis-40E9) (CD3 on Jurkat cells): 0.77 ratio
- Ratio of EC50 (relative to ATG-Bis-40E9), luciferase assay on MM.1S (GPRC5D on MM.1S cells [6]): 3.25 ratio
- Ratio of Top RLU (relative to ATG-Bis-40E9), luciferase assay on MM.1S (GPRC5D on MM.1S cells [6]): 1.09 ratio

B5: Bis-40E9-L2H16 (bispecific antibody)
heavy 1: not shown
heavy 2: B3 heavy 2 with S262D, R336D, A337G
light: B3 light
notes: as for B3
- Ratio of EC50 (relative to ATG-Bis-40E9) (GPRC5D on MM.1S cells [4]): 0.913 ratio
- Ratio of Top MFI (relative to ATG-Bis-40E9) (GPRC5D on MM.1S cells [4]): 0.972 ratio
- Ratio of IC50 (relative to ATG-Bis-40E9), MM.1S cytotoxicity (GPRC5D on MM.1S cells [5]): 4.93 ratio
- Ratio of Top cytotoxicity (relative to ATG-Bis-40E9), MM.1S cytotoxicity (GPRC5D on MM.1S cells [5]): 0.98 ratio
- Ratio of EC50 (relative to ATG-Bis-40E9) (CD3 on Jurkat cells): 2.97 ratio
- Ratio of Top MFI (relative to ATG-Bis-40E9) (CD3 on Jurkat cells): 0.62 ratio
- Ratio of EC50 (relative to ATG-Bis-40E9), luciferase assay on MM.1S (GPRC5D on MM.1S cells [6]): 6.02 ratio
- Ratio of Top RLU (relative to ATG-Bis-40E9), luciferase assay on MM.1S (GPRC5D on MM.1S cells [6]): 0.84 ratio
